Source: patent publication US20220273713A1, “METHOD OF INHIBITING OR ACTIVATING GAMMA DELTA T CELLS” (The University of Melbourne, priority 2019, published 2022)
Several values for one entry are separate records, joined by “and”; a condition that tells them apart may be missing. Equal values may be shown once. Entries after “also recorded” stand apart in the source; their conditions may differ.

B1: antibody 253: agonistic anti-BTN2A1 antibody; VL SEQ ID NO: 148, VH SEQ ID NO: 152 (antibody, V domains shown)
VH: EVQLLESGGGLVQPGGSLRLSCAASGFTFSTYDMYWVRQAPGKGLEWVSYISPSGGLTTYADSVKGRFTISRDNSKNTLYLQMNSLRAEDTAVYYCARDHYDSSGRATNYYYYMDVWGKGTTVTVSS
VL: QSALTQPPSASGTPGQRVTLSCSGSSSNIGSNRVNWYQQLPGTAPKLLIDSNNQRPSGVPDRFSGSKSGTSASLAISGLRSEDEVFYYCAAWDDSVHGPVFGGGTMVTVL
modifications: amino acid sequence of the VH of antibody 253; amino acid sequence of the VL of antibody 253

Experiments:
[1] = molecular target: G115 Vγ9Vδ2+ γδTCR, wild type, on cells; assay: flow cytometry, tetramer-PE versus anti-CD3ε-APC on Jurkat G115 Vγ9Vδ2+ γδTCR cells
[2] = test system: Vγ9Vδ2 cells; assay: Luminex (Vγ9Vδ2): cytokine/chemokine secretion by pre-expanded Vγ9Vδ2 cells; format: cell-based, human; details: for GMCSF / ICAM-1 / IFNγ / IL-4 / IL-8 / IL-13 / IL-17A / MIP-1a / MIP-1b / TNFα / sE-selectin / sP-Selectin: 16 hrs, antibodies 10 μg/ml, Zoledronic acid 4 μM, HMBPP 0.5 ng/ml, duplicates, 0 set to 0.1;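 for all read-outs here: Vγ9Vδ2 cells purified from PBMC, activated 48 h with CD3 and CD28 plus IL-2, expanded 14 days in IL-2, then thawed and rested overnight in IL-2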
Method: Briefly, Vγ9Vδ2 cells were isolated from 1 healthy donor (Red Cross Australia) and 1 cancer patient derived PBMC using TCRγ/δ+ T Cell Isolation Kit (Miltenyi). Cells were stimulated for 48 hours in TCRPMI supplemented with 100u/ml IL-2, CD3 (10 μg/ml) and CD28 (1 μg/ml). Cells were washed and grown for 14 days in TCRPMI supplemented with 100u/ml IL-2 at 37 degrees C. and 5% CO2, and then frozen down. […] Vγ9Vδ2 were defrosted and rested overnight in TCRPMI supplemented with 50u/ml IL-2 at 37 degrees C. and 5% CO2. […] All samples were run with appropriate controls and standards.

[3] = test system: Vγ9Vδ2 cells; assay: Flow cytometry: CD25 on Vγ9Vδ2 cells without phosphoantigen or APCs; format: cell-based, human; details: no addition of APCs or phosphoantigen; listed as 253
Text: Vγ9Vδ2 cells were stained for CD3, Vδ2, CD25 and live dead viability dye as previously described and analysed on a Canto flow cytometer (BD). Cells were gated on lymphocytes, single cells, live cells, CD3+ Vδ2+, and activation determined based on CD25 expression.

[4] = test system: LM-MEL-62 and LM-MEL-75 melanoma cells; assay: Tumor killing/inhibition assay: γδ T cells with melanoma cells 2:1, MTS and CD25; format: cell-based, human; details: γδ T cells : melanoma cells 2:1, three days, antibody 10 ug/ml
Method: In the following experiments, γδ T cells were enriched by MACS using PE-Cy7-conjugated anti-γδTCR followed by anti-phycoerythrin-mediated magnetic bead purification (Miltenyi Biotec). After enrichment CD3^+ Vδ2^+γδ T cells were further purified by sorting using an Aria III (BD). […] LM-MEL-62 and LM-MEL-75 melanoma cells were plated out 1×10^4 per well in a 96 well flat-bottom plate In RPMI1640 media supplemented with 10% FBS and left to adhere overnight. […] All conditions were repeated in triplicate. Cells were incubated at 37 degrees and on day 3 Vd2+ cells were acquired by flow cytometry. Live cells were gated and activation determined by analysis of CD25 expression. Melanoma cell viability was determined by MTS assay. MTS reagent was added to RPMI media at a 1:5 ratio and 100 ul added per well. Cells were incubated at 37 degrees for 30 minutes and the plate was read on a Spectrostar nano plate reader at 490 nm. […] Cultures were performed with γδ T cells and melanoma cells (LM-MEL-75 or LM-MEL-62) in a 2:1 ratio.

[5] = test system: γδ T cells; assay: Identification of BTN2A1 agonistic antibodies: CD25 and interferon γ of expanded γδ T cells; format: cell-based, human; details: 10 μg/ml antibody overnight, vs isotype control BM4
Method: In some experiments γδ T cells were enriched by MACS using PE-Cy7-conjugated anti-γδTCR followed by anti-phycoerythrin-mediated magnetic bead purification (Miltenyi Biotec). After enrichment CD3+Vδ2+ γδ T cells were further purified by sorting using an Aria III (BD). Enriched γδ T cells were stimulated in vitro for 48 h with plate-bound anti-CD3ε (OKT3, 10 ug/ml, Bio-X-Cell), soluble anti-CD28 (CD28.2, 1 ug/ml, BD Pharmingen), phytohemagglutinin (0.5 μg/ml, Sigma), IL-15 (50 ng/ml), and recombinant human IL-2 (100 U/ml, PeproTech), followed by maintenance with IL-2 and IL-15 for 14-21 d. Cells were cultured in complete medium consisting of a 50:50 (v/v) mixture of RPMI-1640 and AIM-V (Invitrogen) supplemented with 10% (v/v) FCS (JRH Biosciences), penicillin (100 U/ml), streptomycin (100 μg/ml), Glutamax (2 mM), sodium pyruvate (1 mM), nonessential amino acids (0.1 mM), and HEPES buffer (15 mM), pH 7.2-7.5 (all from Invitrogen Life Technologies), plus 50 μM 2-mercaptoethanol (Sigma-Aldrich).
The inventors screened the panel of antibodies specific for BTN2A1, as described above, to identify those able to agonise BTN2A1. The inventors assessed the ability of anti-BTN2A1 antibodies to activate γδ T cells. The inventors assessed upregulation of CD25 on the surface of previously expanded γδ T cells following culturing the cells with 10 μg/ml anti-BTN2A1 antibodies or isotype control antibody (BM4) overnight.
The inventors additionally measured levels of interferon γ secreted by γδ T cells following culture in the presence of 10 μg/ml anti-BTN2A1 antibodies or isotype control antibody (BM4) overnight. Interferon γ secretion is another indicator of TCR-dependent activation.

[6] = γδT cells from patient 1 (melanoma patient)
[7] = γδT cells from a healthy donor, listed as 253
[8] = γδT cells from patient 1 (melanoma patient), listed as 253

cells in the BTN2A1 tetramer+ gate (%) [1] [%] | Molecule | ICAM-1 ([2]; γδT cells from a healthy donor) | IFNγ ([2]; γδT cells from a healthy donor) | IL-4 ([2]; γδT cells from a healthy donor) [pg/mL] | IL-8 ([2]; γδT cells from a healthy donor) [pg/mL] | IL-13 ([2]; γδT cells from a healthy donor) | IL-17A ([2]; γδT cells from a healthy donor) [pg/mL] | TNFα ([2]; γδT cells from a healthy donor) | sE-selectin ([2]; γδT cells from a healthy donor) [pg/mL] | sP-Selectin ([2]; γδT cells from a healthy donor) | IL-4 [2, 6] | IL-8 [2, 6] [pg/mL] | IL-17A [2, 6] | TNFα [2, 6] | sP-Selectin [2, 6] | further results
100 | BTN2A1 tetramer-PE (biotinylated BTN2A1 ectodomain tetramerized with streptavidin-PE) (ligand) |  |  |  |  |  |  |  |  |  |  |  |  |  |  | 
 | O=P(O)(O)C(O)(Cn1ccnc1)P(=O)(O)O [Zoledronate, zoledronate, reference compound] | 490.35 pg/mL and 504.11 pg/mL | 58.38 pg/mL and 58.97 pg/mL | 0.1 | 0.1 | 5.22 pg/mL and 4.43 pg/mL | 0.1 | 13.03 pg/mL and 13.02 pg/mL | 190.9 | 200.54 pg/mL and 313.85 pg/mL | 7.43 pg/mL and 7.68 pg/mL | 0.1 | 3.5 pg/mL and 4.08 pg/mL | 105.84 pg/mL and 102.44 pg/mL | 1239.34 pg/mL and 1299.54 pg/mL | GMCSF ([2]; γδT cells from a healthy donor): 254.29 pg/mL and 268.62 pg/mL; MIP-1a ([2]; γδT cells from a healthy donor): 121.61 pg/mL and 125.27 pg/mL; MIP-1b ([2]; γδT cells from a healthy donor): 1280.91 pg/mL and 1334.19 pg/mL; GMCSF [2, 6]: 650.17 pg/mL and 619.93 pg/mL; ICAM-1 [2, 6]: 968.87 pg/mL and 888.51 pg/mL; IFNγ [2, 6]: 175.86 pg/mL and 171.42 pg/mL; IL-13 [2, 6]: 235.43 pg/mL and 219.81 pg/mL; MIP-1a [2, 6]: 274.25 pg/mL and 273.85 pg/mL; MIP-1b [2, 6]: 5061.49 pg/mL and 4756.68 pg/mL; sE-selectin [2, 6]: 259.01 pg/mL and 287.88 pg/mL
100 | Glycosylated BTN2A1 tet. (simple glycans) (from UniProt Q7KYR7) (ligand) |  |  |  |  |  |  |  |  |  |  |  |  |  |  | 
 | B1 | 0.1 pg/mL | 0.1 pg/mL | 0.1 | 0.1 | 0.1 pg/mL | 0.1 | 0.1 pg/mL | 0.1 | 0.1 pg/mL | 0.1 pg/mL | 0.1 | 0.1 pg/mL | 0.1 pg/mL | 0.1 pg/mL | activation of Vγ9Vδ2 cells by CD25 upregulation [3]: activation of Vγ9Vδ2 independent of phosphoantigen; also recorded: can mimic phosphoantigen mediated activation to various degrees; CD25 level of expression on γδ T cells in co-culture [4]: upregulated; level of secreted interferon γ [5]: increase the level of secreted interferon γ; percentage of γδ T cells expressing CD25 [5]: increase the percentage of γδ T cells expressing CD25; cytokine/chemokine secretion, in words ([2]; across both donors): weaker stimulus; cytokine/chemokine secretion, in words ([2]; cancer patient derived Vγ9Vδ2 cells, vs isotype (BM4)): No increase in any analyte; cytokine/chemokine secretion, in words ([2]; healthy donor derived Vγ9Vδ2 cells, vs isotype (BM4)): only small increases in the amounts of secreted GMCSF; MIP-1a [2, 7]: 16.32 pg/mL and 19.57 pg/mL; MIP-1b [2, 7]: 117.31 pg/mL and 143.67 pg/mL; GMCSF [2, 8]: 32.02 pg/mL and 33.23 pg/mL; ICAM-1 [2, 8]: 480.81 pg/mL and 405.75 pg/mL; IFNγ [2, 8]: 6.87 pg/mL and 3.45 pg/mL; IL-13 [2, 8]: 45.16 pg/mL and 36.92 pg/mL; MIP-1a [2, 8]: 133.36 pg/mL and 137.25 pg/mL; MIP-1b [2, 8]: 901.33 pg/mL and 941.65 pg/mL; sE-selectin [2, 8]: 142.97 pg/mL and 101.78 pg/mL
